Laboratory results reported in IntAct's records for PubMed 22430200.

B1: E3 ubiquitin-protein ligase RNF31 (Homo sapiens), Q96EP0 (parent)
chain: MPGEEEERAFLVAREELASALRRDSGQAFSLEQLRPLLASSLPLAARYLQLDAARLVRCNAHGEPRNYLNTLSTALNILEKYGRNLLSPQRPRYWRGVKFNNPVFRSTVDAVQGGRDVLRLYGYTEEQPDGLSFPEGQEEPDEHQVATVTLEVLLLRTELSLLLQNTHPRQQALEQLLEDKVEDDMLQLSEFDPLLREIAPGPLTTPSVPGSTPGPCFLCGSAPGTLHCPSCKQALCPACDHLFHGHPSRAHHLRQTLPGVLQGTHLSPSLPASAQPRPQSTSLLALGDSSLSSPNPASAHLPWHCAACAMLNEPWAVLCVACDRPRGCKGLGLGTEGPQGTGGLEPDLARGRWACQSCTFENEAAAVLCSICERPRLAQPPSLVVDSRDAGICLQPLQQGDALLASAQSQVWYCIHCTFCNSSPGWVCVMCNRTSSPIPAQHAPRPYASSLEKGPPKPGPPRRLSAPLPSSCGDPEKQRQDKMREEGLQLVSMIREGEAAGACPEEIFSALQYSGTEVPLQWLRSELPYVLEMVAELAGQQDPGLGAFSCQEARRAWLDRHGNLDEAVEECVRTRRRKVQELQSLGFGPEEGSLQALFQHGGDVSRALTELQRQRLEPFRQRLWDSGPEPTPSWDGPDKQSLVRRLLAVYALPSWGRAELALSLLQETPRNYELGDVVEAVRHSQDRAFLRRLLAQECAVCGWALPHNRMQALTSCECTICPDCFRQHFTIALKEKHITDMVCPACGRPDLTDDTQLLSYFSTLDIQLRESLEPDAYALFHKKLTEGVLMRDPKFLWCAQCSFGFIYEREQLEATCPQCHQTFCVRCKRQWEEQHRGRSCEDFQNWKRMNDPEYQAQGLAMYLQENGIDCPKCKFSYALARGGCMHFHCTQCRHQFCSGCYNAFYAKNKCPEPNCRVKKSLHGHHPRDCLFYLRDWTALRLQKLLQDNNVMFNTEPPAGARAVPGGGCRVIEQKEVPNGLRDEACGKETPAGYAGLCQAHYKEYLVSLINAHSLDPATLYEVEELETATERYLHVRPQPLAGEDPPAYQARLLQKLTEEVPLGQSIPRRRK

Variants of: B1
Conditions: with hoil1_human RBCK1, Q9BYM8
Chain of hoil1_human RBCK1, Q9BYM8 (Q9BYM8 whole entry): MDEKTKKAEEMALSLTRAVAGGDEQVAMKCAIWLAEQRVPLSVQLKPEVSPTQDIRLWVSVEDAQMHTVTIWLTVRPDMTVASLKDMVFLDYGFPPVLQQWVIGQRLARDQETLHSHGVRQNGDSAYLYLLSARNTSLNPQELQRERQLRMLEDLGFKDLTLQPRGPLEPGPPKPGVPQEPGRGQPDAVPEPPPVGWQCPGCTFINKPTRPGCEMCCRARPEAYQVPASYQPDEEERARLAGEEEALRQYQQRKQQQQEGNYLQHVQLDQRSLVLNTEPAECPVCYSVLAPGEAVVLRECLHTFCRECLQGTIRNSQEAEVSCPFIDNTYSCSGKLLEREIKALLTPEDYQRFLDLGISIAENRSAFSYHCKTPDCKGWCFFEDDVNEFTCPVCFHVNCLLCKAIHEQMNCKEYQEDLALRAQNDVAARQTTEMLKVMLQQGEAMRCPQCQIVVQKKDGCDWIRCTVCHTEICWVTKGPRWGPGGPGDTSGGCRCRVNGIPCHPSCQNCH

Question: Q613A was tested. Which “effect of a mutation on the interaction” value did it give?
Answer: disrupting interaction

Variants of: B1
Conditions: with hoil1_human RBCK1, Q9BYM8
Remark: another data set of the same source

Question: Which “effect of a mutation on the interaction” value does the source give for Q613A here?
Answer: decreasing interaction

Question: How did the “effect of a mutation on the interaction” value turn out when L617A was run?
Answer: decreasing interaction

Variants of: B1
Conditions: with hoil1_human RBCK1, Q9BYM8
Remark: another data set of the same source

Question: How did the “effect of a mutation on the interaction” value turn out when L617A was run?
Answer: disrupting interaction

Variants of: B1
Conditions: with hoil1_human RBCK1, Q9BYM8
Remark: another data set of the same source

Question: F620A was tested. Which “effect of a mutation on the interaction” value did it give?
Answer: disrupting interaction

Variants of: B1
Conditions: with hoil1_human RBCK1, Q9BYM8
Remark: another data set of the same source

Question: Which “effect of a mutation on the interaction” value does the source give for F620A here?
Answer: decreasing interaction

Variants of: B1
Conditions: with hoil1_human RBCK1, Q9BYM8
Remark: another data set of the same source

Question: With R623A as the variant, how does the “effect of a mutation on the interaction” value read?
Answer: disrupting interaction
